Assay [1] deals with 3-phosphoglycerate dehydrogenase (PGD). The assay is described as follows: Inhibition of PGD activity by L-serine, inhibitor constant Ki. Conditions: Ki = inhibitor concentration at which activity is 50% of activity without inhibitor. Format: biochemical, Escherichia coli.
The test system of assay [2] is 3-phosphoglycerate dehydrogenase (PGD). Description: PGD enzyme activity in crude extracts (McKitrick and Pizer test). Format: biochemical, Escherichia coli. Conditions: crude extract of strain expressing plasmid-encoded serA allele; backward reaction, NADH oxidation at 340 nm.

The text below walks through data of patent publication US7582460B2 (Wacker Chemie AG, priority 2003, dated 2009).

The Ki is the equilibrium dissociation constant of an inhibitor or competing ligand from its target. A higher Ki goes with weaker binding.

B1: serA231: E. coli PGD variant with replacement T372C (protein, UniProt P0A9T0 2-410, looked up, variant T372C)
D-3-phosphoglycerate …: AKVSLEKDKIKFLLVEGVHQKALESLRAAGYTNIEFHKGALDDEQLKESIRDAHFIGLRSRTHLTEDVINAAEKLVAIGCFCIGTNQVDLDAAAKRGIPVFNAPFSNTRSVAELVIGELLLLLRGVPEANAKAHRGVWNKLAAGSFEARGKKLGIIGYGHIGTQLGILAESLGMYVYFYDIENKLPLGNATQVQHLSDLLNMSDVVSLHVPENPSTKNMMGAKEISLMKPGSLLINASRGTVVDIPALCDALASKHLAGAAIDVFPTEPATNSDPFTSPLCEFDNVLLTPHIGGSTQEAQENIGLEVAGKLIKYSDNGSTLSAVNFPEVSLPLHGGRRLMHIHENRPGVLTALNKIFAEQGVNIAAQYLQCSAQMGYVVIDIEADEDVAEKALQAMKAIPGTIRARLLY
B1 registered a Ki in assay [1] of 3 mM. Also, in assay [2], the Activity stood at 0.02 units/mg.

B2: serA20: E. coli PGD variant with replacement T372I (protein, UniProt P0A9T0 2-410, looked up, variant T372I)
D-3-phosphoglycerate …: AKVSLEKDKIKFLLVEGVHQKALESLRAAGYTNIEFHKGALDDEQLKESIRDAHFIGLRSRTHLTEDVINAAEKLVAIGCFCIGTNQVDLDAAAKRGIPVFNAPFSNTRSVAELVIGELLLLLRGVPEANAKAHRGVWNKLAAGSFEARGKKLGIIGYGHIGTQLGILAESLGMYVYFYDIENKLPLGNATQVQHLSDLLNMSDVVSLHVPENPSTKNMMGAKEISLMKPGSLLINASRGTVVDIPALCDALASKHLAGAAIDVFPTEPATNSDPFTSPLCEFDNVLLTPHIGGSTQEAQENIGLEVAGKLIKYSDNGSTLSAVNFPEVSLPLHGGRRLMHIHENRPGVLTALNKIFAEQGVNIAAQYLQISAQMGYVVIDIEADEDVAEKALQAMKAIPGTIRARLLY
Take B2: the affinity in assay [1] corresponds to a Ki of 40 mM. In assay [2], this molecule displayed an Activity of 0.05 units/mg.

B3: serA11: E. coli PGD variant with replacement T372Y (protein, UniProt P0A9T0 2-410, looked up, variant T372Y)
D-3-phosphoglycerate …: AKVSLEKDKIKFLLVEGVHQKALESLRAAGYTNIEFHKGALDDEQLKESIRDAHFIGLRSRTHLTEDVINAAEKLVAIGCFCIGTNQVDLDAAAKRGIPVFNAPFSNTRSVAELVIGELLLLLRGVPEANAKAHRGVWNKLAAGSFEARGKKLGIIGYGHIGTQLGILAESLGMYVYFYDIENKLPLGNATQVQHLSDLLNMSDVVSLHVPENPSTKNMMGAKEISLMKPGSLLINASRGTVVDIPALCDALASKHLAGAAIDVFPTEPATNSDPFTSPLCEFDNVLLTPHIGGSTQEAQENIGLEVAGKLIKYSDNGSTLSAVNFPEVSLPLHGGRRLMHIHENRPGVLTALNKIFAEQGVNIAAQYLQYSAQMGYVVIDIEADEDVAEKALQAMKAIPGTIRARLLY
In the case of B3, in assay [1], the affinity, expressed as Ki, was 35 mM. In assay [2], this molecule showed an Activity of 0.05 units/mg.

B4: serA219: E. coli PGD variant with replacement T372G (protein, UniProt P0A9T0 2-410, looked up, variant T372G)
D-3-phosphoglycerate …: AKVSLEKDKIKFLLVEGVHQKALESLRAAGYTNIEFHKGALDDEQLKESIRDAHFIGLRSRTHLTEDVINAAEKLVAIGCFCIGTNQVDLDAAAKRGIPVFNAPFSNTRSVAELVIGELLLLLRGVPEANAKAHRGVWNKLAAGSFEARGKKLGIIGYGHIGTQLGILAESLGMYVYFYDIENKLPLGNATQVQHLSDLLNMSDVVSLHVPENPSTKNMMGAKEISLMKPGSLLINASRGTVVDIPALCDALASKHLAGAAIDVFPTEPATNSDPFTSPLCEFDNVLLTPHIGGSTQEAQENIGLEVAGKLIKYSDNGSTLSAVNFPEVSLPLHGGRRLMHIHENRPGVLTALNKIFAEQGVNIAAQYLQGSAQMGYVVIDIEADEDVAEKALQAMKAIPGTIRARLLY
B4 registered an inhibition constant Ki in assay [1] of 8 mM. The same molecule came in with an Activity in assay [2] of 0.05 units/mg.
